# Experiments:
# [1] = tested on: NTG-induced skin hypersensitivity in mice; test: Mouse model of chronic migraine (repetitive NTG): hindpaw and facial von Frey thresholds, cheek acetone test; type: in vivo
# Experimental: Mouse model of chronic migraine and drug treatments: After measuring baseline nociceptive responses, mice received repetitive intraperitoneal (i.p.) injections of NTG (10 mg/kg in saline with 1% propylene glycol) or vehicle (saline with 1% propylene glycol in saline, 10 mL/kg) every 2 days for 4 or more times as described previously (Pradhan A A, et al. PAIN 2014; 155:269-74). Nocifensive behaviors were measured 2 days after each injection (before the next treatment). NTG (SDM27; Copperhead Chemical, Tamaqua, PA) was freshly diluted from the stock (10% in propylene glycol, aliquoted in airtight glass vials and stored at 4° C.) with saline for every injection. Recombinant mouse IL2 (carrier-free; Biolegend, San Diego, CA) was freshly diluted from the stock (1 mg/mL aliquots at […]) every day. Each mouse received daily i.p. injection of […] IL2 in […] saline. The control mice received daily i.p. injections of […] saline. In Treg depletion experiment, mice received 1 i.p. injection of antibodies against CD25 ([…], BP0012; BioXcell, West Lebanon, NH11) or control IgG (BP0088; BioXcell). The antibody binds to CD25 on Treg cell membrane and depletes Treg cells through Fcg receptor III-mediated antibody-dependent cellular cytotoxicity and antibody-dependent cellular phagocytosis (Setiady Y Y, et al, Eur J Immunol 2010; 40:780-6). Note that on the days that the mouse behaviors were tested, NTG, IL2 and/or antibodies were always injected after completing the behavioral tests.
# Responses to mechanical stimuli on the hindpaw. Mice were habituated in individual clear plexiglass boxes (11×11×15 cm) for 1 to 2 hours. A series of calibrated von Frey filaments was used to apply mechanical stimuli to the plantar surface of the hindpaws. The up-down paradigm was used to determine the 50% withdrawal threshold. The thresholds for both hindpaws were averaged to yield a single value for each mouse.
# Cheek acetone test. The acute nocifensive response to acetone-evoked evaporative cooling on mouse cheek was measured as previously described (Constandil L, et al. J Pain 2012; 13:579-89). The day before testing, both cheeks were shaved (6.5×12 mm) under brief anesthesia (2% isoflurane in 100% oxygen). On the test day, mice were habituated in individual plexiglass cylinders (11-cm diameter, 15-cm height) situated in front of 3-way mirrors for 1 to 2 hours. Acetone ([…]) was applied to the shaved cheeks and immediately returned mice to the cylinders. Time spent wiping the treated area was recorded by a video camera and quantified offline. For individual mice, acetone was applied alternatingly to both cheeks at 10-minute intervals, and the duration of behavior was averaged from 4 applications.
# Withdrawal responses to facial mechanical stimuli. The hair on mouse forehead (above and between 2 eyes) was shaved the day before testing. On the test day, the experimenter gently held the mouse on the palm with minimal restraint and applied the calibrated von Frey filament perpendicularly to the shaved skin, causing the filament to bend for 5 seconds. A positive response was determined by the following criteria as previously described: mouse vigorously stroked its face with the forepaw, head withdrawal from the stimulus, or head shaking (Elliott M B et al., Headache 2012; 52:966-84). The up-down paradigm was used to determine the 50% withdrawal threshold. […]
# [2] = tested on: SNI-induced punctate and dynamic allodynia in mice; test: Mouse model of spared nerve injury (SNI): punctate (von Frey) and dynamic (brush) allodynia; type: in vivo
# Text: Mouse model of SNI. Mice were anesthetized with 3-4% isoflurane in an induction chamber until losing the righting reflex. Anesthesia was maintained by 1.5-2% isoflurane through a nose cone. After skin and muscle incision to expose the right sciatic nerve in the thigh region, we tightly ligated two branches (sural and common peroneal nerves) with 7-0 silk suture (Braintree Scientific, Braintree, MA) and transected ~2 mm of the nerve distal to the ligature. The third branch of the sciatic nerve (tibial nerve) was left intact, and caution was taken not to stretch or contact the spared nerve. In sham mice the right sciatic nerve and its branches were exposed but were not touched. After the surgery, the overlying muscle and skin layers were closed separately with 6-0 vicryl suture and interrupted nylon suture for the skin incision, respectively.
# Response to punctate mechanical stimuli on the hindpaw. Mice were habituated in individual clear plexiglass boxes (11×11×15 cm) for 1-2 hours. A series of calibrated von Frey filaments were used to apply mechanical stimuli to the medial plantar surface of the hindpaw (the tibial nerve territory). We used the up-down paradigm to determine the 50% withdrawal threshold.
# Response to dynamic mechanical stimuli on the hindpaw. Mice were habituated in individual clear plexiglass boxes (11×11×15 cm) for 1-2 hours. The medial plantar surface of the hindpaw (tibial nerve territory) was stimulated by light stroking with a blunt paintbrush (5/0, Princeton Art & Brush Co., Princeton, NJ) from heel to toe at ~2 cm/second. The behavior was scored as described previously. Score 0 indicates no evoked movement or lifting the stimulated paw for less than 1 second. Score 1 indicates a sustained lifting (more than 2 seconds) of the stimulated paw toward the body or a single gentle flinching of the stimulated paw. Score 2 indicates a strong lateral lift of the stimulated paw above the level of the body or a startle-like jump. Score 3 indicates multiple flinching or licking of the stimulated paw. Each paw was tested 3 times, with minimal interval of 3 minutes. The scores of 3 tests were averaged to indicate the response to dynamic mechanical stimuli.
# Ld-IL2 treatment. Recombinant mouse IL2 (carrier-free, Biolegend, San Diego, CA) was freshly diluted from the stock (0.5-1 mg/ml aliquots at −80° C.) every day. Each mouse received daily intraperitoneal (i.p.) injection of 1 μg IL2 in 100 μl saline at various durations. The control mice received daily i.p. injections of 100 μl saline. Note that on the days that the mouse behaviors were tested, IL2 was always injected after completing the behavioral tests. […]
# [3] = ld-IL2 pretreatment, female C57BL/6J
molecule,measurement,setting,value
"ld-IL2: Recombinant mouse IL2 (carrier-free; Biolegend), given as daily low-dose i.p. injection (protein, UniProt P04351 21-169, looked up) Interleukin-2: APTSSSTSSSTAEAQQQQQQQQQQQQHLEQLLMDLQELLSRMENYRNLKLPRMLTFKFYLPKQATELKDLQCLEDELGPLRHVLDLTQSKSFQLEDAENFISNIRVTVVKLKGSDNTFECQFDDESATVVDFLRRWIAFCQSIISTSPQ",basal hindpaw mechanical sensitivity,"[1]; 5 or 15 days of ld-IL2 injections, male C57BL/6J",not altered
same,established persistent facial mechanical hypersensitivity resulting from repeated NTG injections,"[1]; after 7 to 9 days of IL2 injections, female Swiss Webster",completely reverse
same,behavioral sensitization by subsequent NTG administrations,"[1]; continuous ld-IL2, female C57BL/6J, day 7-11",prevented
same,baseline facial mechanical threshold,"[1]; daily ld-IL2, female Swiss Webster",not altered
same,"daily ld-IL2 treatments to completely reverse NTG-induced facial hypersensitivity, first session","[1]; day 4-10, male C57BL/6J",7
same,"slope of ld-IL2-induced reversal (change of threshold per day), first session","[1]; day 5-11, male C57BL/6J",5.3±0.9
same,acute reduction of facial mechanical threshold 3 hours after NTG,"[1]; day 11, after 7 ld-IL2 injections, female C57BL/6J",did not cause an acute reduction
same,"NTG injections needed after cessation of IL2 to lower the threshold to the NTG+saline level, first session","[1]; day 11-13, male C57BL/6J",2 NTG injections
same,"ld-IL2 injections required to completely reverse NTG-induced mechanical hypersensitivity, second session","[1]; day 19-22, male C57BL/6J",4 injections
same,"slope of ld-IL2-induced reversal (change of threshold per day), second session","[1]; day 19-23, male C57BL/6J",10.3±1.3
same,NTG injections needed after cessation of the second ld-IL2 treatment to reduce the threshold to the NTG+saline level,"[1]; day 23-27, male C57BL/6J",3 NTG injections
same,development of facial cold hypersensitivity,"[1]; delayed ld-IL2 started after 2 NTG injections, female Swiss Webster",blocked the development
same,ld-IL2 injections sufficient to completely reverse the effect of repeated NTG,[1]; female C57BL/6J,3 injections
same,NTG-induced hindpaw mechanical hypersensitivity,"[1]; ld-IL2 pretreatment starting 5 days before first NTG, male C57BL/6J",completely blocked
same,NTG-induced facial cold hypersensitivity,[1]; [3],prevented the development
same,basal responses to acetone-induced cooling,[1]; [3],did not change
same,days of ld-IL2 treatment after which NTG-induced mechanical hypersensitivity started to reverse,"[1]; ld-IL2 started after 2 NTG injections, female Swiss Webster",5 days
same,effect of ld-IL2 on NTG-induced facial skin hypersensitivity in Treg-depleted mice,"[1]; mice given anti-CD25 antibody 3 days earlier, male C57BL/6J",completely abolished
same,days of ld-IL2 treatment after which the mechanical threshold started to reverse,"[2]; 3-week ld-IL2 started 7 days post-SNI, ipsilateral paw",3 days
same,basal punctate and dynamic mechanical sensitivity,"[2]; 5 days of ld-IL2 injections before SNI, female Swiss Webster",not altered
same,mechanical threshold of SNI+IL2 versus sham+IL2 group,[2]; after 7 days of IL2 treatment (day 14-28),not different
same,dynamic allodynia,[2]; after 7 days of IL2 treatment (day 15-29),completely reversed
same,integrated AOC of withdrawal threshold between day 10 and 28 post-SNI versus SNI+saline,[2]; delayed ld-IL2,significantly lower
same,integrated AOC of dynamic allodynia score versus SNI+saline,"[2]; delayed ld-IL2, between day 10 and 28 post-SNI",significantly lower
same,responses to brush stimuli of the contralateral paw and of sham mice,[2]; ld-IL2,did not change
same,SNI-caused reduction of the withdrawal threshold,[2]; ld-IL2 1 μg/mouse/day i.p. from 5 days before to 21 days post-SNI (saline: threshold about 20% of baseline),50%
same,mechanical threshold of the contralateral (left) paw,"[2]; ld-IL2, SNI mice",did not change
same,development of hyper-sensitivity to brush stimuli (dynamic allodynia),[2]; ld-IL2 pretreatment,prevents the development
same,magnitude of punctate allodynia (AOC day 0 to day 22 post-SNI),[2]; ld-IL2 pretreatment,significantly attenuated
